Where a chain is given by its changes, count along the chain named. Names may count otherwise.
B1: S320F_(306-324) tau peptide (peptide, UniProt P10636-8 306-324, looked up)
peptide: Ac-VQIVYKPVDLSKVTFKCGS-NH2
notes: numbers count on: 2N4R tau (P10636-8); source: synthetic peptide (Genscript, > 95% purity)
B2: WT_(306-324) tau peptide (peptide, UniProt P10636-8 306-324, looked up)
peptide: Ac-VQIVYKPVDLSKVTSKCGS-NH2
notes: as for B1
B3: S320F_(295-324) tau peptide (peptide, UniProt P10636-8 295-324, looked up)
peptide: DNIKHVPGGGSVQIVYKPVDLSKVTFKCGS
notes: numbers count on: 2N4R tau (P10636-8); probably synthesised, acetylated and amidated like the others
B4: WT_(295-324) tau peptide (peptide, UniProt P10636-8 295-324, looked up)
peptide: B3 peptide with F26S
notes: as for B3
B5: WT_(306-330) tau peptide (peptide, UniProt P10636-8 306-330, looked up)
peptide: Ac-VQIVYKPVDLSKVTSKCGSLGNIHH-NH2
notes: as for B1
B6: S320F_(306-330) tau peptide (peptide, UniProt P10636-8 306-330, looked up)
peptide: Ac-VQIVYKPVDLSKVTFKCGSLGNIHH-NH2
notes: as for B1
B7: WT_(295-330) tau peptide (peptide, UniProt P10636-8 295-330, looked up)
peptide: Ac-DNIKHVPGGGSVQIVYKPVDLSKVTSKCGSLGNIHH-NH2
notes: as for B1
B8: S320F_(295-330) tau peptide (peptide, UniProt P10636-8 295-330, looked up)
peptide: Ac-DNIKHVPGGGSVQIVYKPVDLSKVTFKCGSLGNIHH-NH2
notes: as for B1
B9: S320F_I328S_(295-330) tau peptide (peptide, UniProt P10636-8 295-330, looked up)
peptide: Ac-DNIKHVPGGGSVQIVYKPVDLSKVTFKCGSLGNSHH-NH2
notes: as for B1
B10: L315S_S320F_(295-330) tau peptide (peptide, UniProt P10636-8 295-330, looked up)
peptide: Ac-DNIKHVPGGGSVQIVYKPVDSSKVTFKCGSLGNIHH-NH2
notes: as for B1
B11: S320F_L325S_(295-330) tau peptide (peptide, UniProt P10636-8 295-330, looked up)
peptide: Ac-DNIKHVPGGGSVQIVYKPVDLSKVTFKCGSSGNIHH-NH2
notes: as for B1
B12: P301S_I328S_(295-330) tau peptide (peptide, UniProt P10636-8 295-330, looked up)
peptide: Ac-DNIKHVSGGGSVQIVYKPVDLSKVTSKCGSLGNSHH-NH2
notes: as for B1
B13: P301S_(295-330) tau peptide (peptide, UniProt P10636-8 295-330, looked up)
peptide: Ac-DNIKHVSGGGSVQIVYKPVDLSKVTSKCGSLGNIHH-NH2
notes: as for B1
B14: S324F_(295-330) tau peptide (peptide, UniProt P10636-8 295-330, looked up)
peptide: Ac-DNIKHVPGGGSVQIVYKPVDLSKVTSKCGFLGNIHH-NH2
notes: as for B1
B15: S320I tau peptide (295-330) (peptide, UniProt P10636-8 295-330, looked up)
peptide: Ac-DNIKHVPGGGSVQIVYKPVDLSKVTIKCGSLGNIHH-NH2
notes: as for B1
B16: S320I_I328V tau peptide (295-330) (peptide, UniProt P10636-8 295-330, looked up)
peptide: Ac-DNIKHVPGGGSVQIVYKPVDLSKVTIKCGSLGNVHH-NH2
notes: as for B1
B17: S320V tau peptide (295-330) (peptide, UniProt P10636-8 295-330, looked up)
peptide: Ac-DNIKHVPGGGSVQIVYKPVDLSKVTVKCGSLGNIHH-NH2
notes: as for B1

Target: the molecule itself
Test: ThT fluorescence aggregation assay + negative-stain TEM; self-assembly of tau peptides at 200 µM; 1x PBS, 2 mM TCEP, pH 7, 25 µM ThT, 72 h; TEM of the endpoint

Protein	binding result
B1	binds
B2	binds
B3	binds
B4	binds
B5	binds
B6	binds
B7	binds
B8	binds
B9	binds
B10	binds
B11	binds
B12	binds
B13	binds
B14	binds
B15	binds
B16	binds
B17	binds

— article PMC10036635, “FTD-tau S320F mutation stabilizes local structure and allosterically promotes amyloid motif-dependent aggregation” (Nature Communications, 2023)
